The source of these data is patent publication US20260224762A1, “RADIONUCLIDE LABELLED PEPTIDE CONJUGATE FOR SITE-SPECIFIC UPAR-TARGETING” (CURASIGHT A/S, priority 2023, published 2026).

The structures appear in SMILES notation. “Also recorded” adds a separate entry of the source. Where two headings read alike, the source gives them in different places.

Data set [1] is described as follows: in vivo. Also on record: species or system female NMRI nude mice. The following applies: female, NMRI nude, mouse, iv, total radioactivity. As to the method:
(§1) The biodistribution of 67Cu-DOTA-AE105 was evaluated in female NMRI nude mice bearing subcutaneous U87 MG tumors. The U87 MG tumor cell line is a human glioblastoma cell line. Animals were stratified into four groups (A, B, C, D) based on tumor volume and body weight on study day-2. Animals in group A were injected with 26.4±0.4 MBq, animals in group B received 55.1±0.2 MBq, animals in group C received 54.3±0.5 MBq and animals in group D received 55.2±0.2 MBq (mean±SEM). The biodistribution was evaluated using SPECT/CT imaging, 2H, 24H, 48H, 96H and 168H after injection. Furthermore, conventional ex vivo biodistribution was evaluated after final imaging timepoints 96H and 168H.
(§2) The results are shown in FIG. 1 as percentage injected dose per gram (% ID/g) and are corrected for radioactive decay. The data in FIG. 1 are derived from the in vivo SPECT/CT imaging.

Data set [2] has as its system subcutaneous U87 MG tumors. Description: in vivo. Also on record: species or system female NMRI nude mice. The following applies: mouse. As to the method: as §1, §2
Data set [3] in a line: in vivo. Also on record: species or system female NMRI nude mice. The conditions noted are these: female, NMRI nude, mouse, 30 kBq, total radioactivity. As to the method:
(§3) The biodistribution of 225Ac-DOTA-AE105 was evaluated in female NMRI nude mice bearing subcutaneous U87 MG tumors. The U87 MG tumor cell line is a human glioblastoma cell line. Animals were stratified into two groups (A and B) based on tumor volume and body weight on study day-2. Animals in group A were injected with 30 kBq of 225Ac-DOTA-AE105 having a specific activity of 30 kBq/nmol, animals in group B received a thousand-fold dose of DOTA-AE105 (cold construct) immediately before receiving 30 kBq of 225Ac-DOTA-AE105 having a specific activity of 30 kBq/nmol. The biodistribution was evaluated using conventional ex vivo biodistribution 1 hour (1H) after injection. The results are shown in FIG. 10 as percentage injected dose per gram (% ID/g) and are corrected for radioactive decay.

Data set [4] has as its system subcutaneous U87 MG tumors. Description: in vivo. Also noted: species or system female NMRI nude mice. The following applies: mouse. As to the method: as §3
The source holds these as a separate data set.

The subject of data set [5] is subcutaneous U87 MG tumors. Description: Treatment efficacy of 177Lu-DOTA-AE105 in glioblastoma xenograft mice. Type of data set: in vivo, female NMRI nude mice. The conditions noted are these: study day 18; group B 92.1 MBq p=0.32; group C three doses of about 30 MBq p=0.84. As to the method:
Furthermore, the efficacy of 177Lu-DOTA-AE105 was tested in female NMRI nude mice bearing subcutaneous U87 MG tumors.
Animals were stratified into three groups (A, B, and C) based on tumor volume and body weight on study day 0. The mean inclusion volume was […] (range 15.0-339.0 mm^3), while the inclusion weight was 23.6±0.4 g (range […]).
Animals were dosed with either vehicle (group A) or 177Lu-DOTA-AE105 (group B, and C) at different activity levels on study day 0. Animals in group B received 92.1±1.7 MBq, animals in group C received 32.9±0.4 MBq. At study day 4 animals in group C received an additional dosing with 26.7±0.2 MBq and at study day 8 animals in group C were dosed with 30.7±0.2 MBq. Doses are calculated by retracting residual dose from the activity measured before injection. No decay correction has been applied.
Tumor volume and body weight was monitored twice a week after the first dosing. The efficacy was evaluated over a period of 5 weeks after first dosing. Each of the treatment groups were compared to the vehicle control group A.
Differences in tumor volume were evaluated at the latest timepoint where minimum 50% of animals were alive within each of the compared groups.

On the set-up of data set [6]: species or system female NMRI nude mice. The following applies: mouse, in vivo, 50 MBq. As to the method: The tumor binding and retention of 177Lu-DOTA-AE105 was evaluated in female NMRI nude mice bearing subcutaneous U87 MG tumors.
Animals were dosed with approximately 50 MBq 177Lu-DOTA-AE105 at study day 0. Tumor binding and retention of 177Lu-DOTA-AE105 was evaluated by SPECT/CT imaging at 0.5H, 2H and 24H after injection. The results for tumor binding and retention of 177Lu-DOTA-AE105 and the data for 67Cu-DOTA-AE105 from example 2 (table 5b) are summarized in table 6 below.

In data set [7] the test system is tumor. The following applies: in vivo; cited from earlier work.
For data set [8], the target named is uPAR (Homo sapiens, UniProt Q03405). Description: uPAR binding by Surface Plasmon Resonance (SPR). The following applies: for SPR K(off) / SPR K(on): 18 degrees Celsius, HEPES pH 7.4. As to the method: Characterization of the binding properties of lead (Pb) labelled DOTA-AE105 to its target i.e. uPAR was measured by Surface Plasmon Resonance (SPR) and expressed as the binding constant (KD), which is a measure of affinity of the conjugate towards its target.
Sequence of uPAR (Q03405 23-305): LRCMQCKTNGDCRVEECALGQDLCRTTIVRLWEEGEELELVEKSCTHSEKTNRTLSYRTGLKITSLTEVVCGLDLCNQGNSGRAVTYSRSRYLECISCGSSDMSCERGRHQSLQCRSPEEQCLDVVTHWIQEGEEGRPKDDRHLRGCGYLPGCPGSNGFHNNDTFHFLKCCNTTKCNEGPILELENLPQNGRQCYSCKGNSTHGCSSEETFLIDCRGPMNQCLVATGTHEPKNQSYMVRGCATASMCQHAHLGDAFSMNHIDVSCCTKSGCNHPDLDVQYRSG
Characterizing the interaction between a target protein (in this case uPAR) and a ligand by SPR is a well-known method for the skilled person.
The target protein uPAR was captured, via a protein tag, onto a sensor chip and the test compound (Pb2+-DOTA-AE105 and Cu2+-DOTA-AE105 respectively) were dissolved in running buffer (10 mM HEPES buffer at pH 7.4, 150 mM NaCl, […]+0.05% Tween-20) and prepared in 5-point concentration series with three-fold dilution with top concentration around 500 nM of the test compound. The assay was conducted at 18 degrees Celsius.

Regarding `CC(C)C[C@H](NC(=O)[C@H](Cc1ccc(O)cc1)NC(=O)C(CCCNC(=N)N)NC(=O)C(CO)NC(=O)C(Cc1ccccc1)NC(=O)[C@H](CC1CCCCC1)NC(=O)[C@H](CC(=O)O)NC(=O)CN1CCN(CC(=O)O)CCN(CC(=O)O)CCN(CC(=O)O)CC1)C(=O)N[C@@H](Cc1c[nH]c2ccccc12)C(=O)N[C@@H](CO)C(N)=O` (single isomer, unassigned) [67Cu-DOTA-AE105, metal not drawn], in data set [1] (30 MBq), the tissue uptake at 2 h came to 5.31 ± 0.73 %ID/g, the tissue uptake at 24 h worked out at 5.02 ± 0.08 %ID/g, the tissue uptake at 48 h is 3.44 ± 0.11 %ID/g and the tissue uptake at 96 h was determined as 1.74 ± 0.22 %ID/g. Also, the tissue uptake at 168 h in data set [1] (30 MBq) is 0.88 ± 0.15 %ID/g. In data set [1] (60 MBq), the tissue uptake at 2 h is 6.61 ± 1.11 %ID/g, the tissue uptake at 24 h is 6.47 ± 0.5 %ID/g, the tissue uptake at 48 h amounted to 4.24 ± 0.14 %ID/g and the tissue uptake at 96 h was 1.7 ± 0.07 %ID/g. The tissue uptake at 168 h in data set [1] (60 MBq) came out at 0.64 ± 0.05 %ID/g. In data set [2], the “Tumor binding, times higher compared to 177Lu-DOTA-AE105” value is “approximately 50 times”; the “Uptake in other organs such as heart, kidney, and muscle” value is listed as “low uptake”.
Consider `CC(C)C[C@H](NC(=O)[C@H](Cc1ccc(O)cc1)NC(=O)C(CCCNC(=N)N)NC(=O)C(CO)NC(=O)C(Cc1ccccc1)NC(=O)[C@H](CC1CCCCC1)NC(=O)[C@H](CC(=O)O)NC(=O)CN1CCN(CC(=O)O)CCN(CC(=O)O)CCN(CC(=O)O)CC1)C(=O)N[C@@H](Cc1c[nH]c2ccccc12)C(=O)N[C@@H](CO)C(N)=O` (single isomer, unassigned) [225Ac-DOTA-AE105, metal not drawn], for which the tissue uptake at 1 h in data set [3] was 3 %ID/g. Moreover, the “Tumor binding, times higher compared to 177Lu-DOTA-AE105” value in data set [4] was “approximately 5 times”.
`CC(C)C[C@H](NC(=O)[C@H](Cc1ccc(O)cc1)NC(=O)[C@@H](CCCNC(=N)N)NC(=O)[C@@H](CO)NC(=O)[C@H](Cc1ccccc1)NC(=O)[C@H](CC1CCCCC1)NC(=O)[C@H](CC(=O)O)NC(=O)CN1CCN(CC(=O)O)CCN(CC(=O)O)CCN(CC(=O)O)CC1)C(=O)N[C@@H](Cc1c[nH]c2ccccc12)C(=O)N[C@@H](CO)C(N)=O` [177Lu-DOTA-AE105, metal not drawn]: the “Tumor volume compared to vehicle control group / therapeutic effect” value in data set [5] was “no significant difference; also recorded: did not show any therapeutical effect”. Besides, in data set [6], the tissue uptake at 0.5 h is 0.749 ± 0.166 %ID/g, the tissue uptake at 2 h came out at 0.128 ± 0.011 %ID/g and the tissue uptake at 24 h is 0.098 ± 0.001 %ID/g. The “Tumor binding and tumor retention compared to the peptide alone” value in data set [7] was “vastly decreased”.
With `CC(C)C[C@H](NC(=O)[C@H](Cc1ccc(O)cc1)NC(=O)[C@@H](CCCNC(=N)N)NC(=O)[C@@H](CO)NC(=O)[C@H](Cc1ccccc1)NC(=O)[C@H](CC1CCCCC1)NC(=O)[C@@H](CC(=O)O)NC(=O)CN1CCN(CC(=O)O)CCN(CC(=O)O)CCN(CC(=O)O)CC1)C(=O)N[C@@H](Cc1c[nH]c2ccccc12)C(=O)N[C@@H](CO)C(N)=O` [Cu2+-DOTA-AE105], in data set [8], the “SPR K(off)” value turned out to be 19.95 and the “SPR K(on)” value amounted to 0.110.
As to `CC(C)C[C@H](NC(=O)[C@H](Cc1ccc(O)cc1)NC(=O)[C@@H](CCCNC(=N)N)NC(=O)[C@@H](CO)NC(=O)[C@H](Cc1ccccc1)NC(=O)[C@H](CC1CCCCC1)NC(=O)[C@@H](CC(=O)O)NC(=O)CN1CCN(CC(=O)O)CCN(CC(=O)O)CCN(CC(=O)O)CC1)C(=O)N[C@@H](Cc1c[nH]c2ccccc12)C(=O)N[C@@H](CO)C(N)=O` [Pb2+-DOTA-AE105], in data set [8], the “SPR K(off)” value came out at 1.78 and the “SPR K(on)” value was determined as 0.102. For the same molecule, the “Affinity fold higher than Cu2+-DOTA-AE105” value in data set [8] (ratio of KD) is recorded as “more than 10 fold”.

Broadly, the tissue uptake is the percentage of the injected dose found per gram of tissue.
